In patent US20250222125A1, “Anti-FGFR2b Antibodies, Conjugates and Methods of Use” (BeiGene, Ltd., priority 2024, published 2025):

B1: BGAm1823: parental murine anti-FGFR2b antibody; VH SEQ ID NO: 28, VL SEQ ID NO: 30 (antibody, V domains shown)
VH: EVQLQQSGAELVKPGASVKISCKASGYAFSIYWMNWVKQRPGKGLEWIGQIYPENGDTNYNGKFKGKATLTADKSSSTAYMHLSSLTSEDSAVYFCARGGFDYWGQGTTLTVSS
VL: NIVMTQSPASLSASVGETVTITCRASENIYSNLAWYQQKQGKSPQLLVYTATNLADGVPSRFSGSGSGTQFSLKINSLQPEDFGSYYCQHFYGILYTFGSGTRLEIK
modifications: Synthetic: VH AA; Synthetic: VL AA
B2: BGAh9179: humanized anti-FGFR2b IgG1 antibody from murine BGAm1371; VH SEQ ID NO: 21, VL SEQ ID NO: 22 (antibody, V domains shown)
VH: QVQLVQSGAEVKKPGASVKVSCKASGYTITDTYIHWVRQAPGQGLEWMGRIDPAEGNTMFASEFQGRVTMTADTSTSTVYMELSSLRSEDTAVYYCARSKIHYDYDEGFAYWGQGTLVTVSS
VL: DIVLTQSPDSLAVSLGERATINCRASESVDDYGYSFLHWYQQKPGQPPKLLIYRASNLESGVPDRFSGSGSGTDFTLTISSLQAEDVAVYYCQQSNQNPRTFGGGTKVEIK
modifications: Synthetic: VH AA; Synthetic: VL AA

Legend:
[1] = biological target: T1, Human FGFR2c (Homo sapiens, UniProt P21802); experiment: ELISA binding to recombinant human FGFR2c (Example 11); conditions: for Emax (A450): human FGFR2c; for binding to human FGFR2c: in words
[2] = system: phosphorylated FGFR in SNU-16 cells; experiment: Inhibition of FGFR2 signaling in SNU-16 cells (Western blot of pFGFR); type: cell-based; conditions: antibody 10 μg/ml, 2 hours; for FGF10-induced FGFR phosphorylation: FGF10 10 ng/ml
Protocol: Inhibition of the FGFR2 signaling pathway by the humanized antibodies was investigated. SNU-16 cells were grown in RPMI-1640 medium with 10% FBS, collected and washed twice with free medium and then seeded in 12-well plates at 1.5E6 cells/well in serum-free RPMI-1640. The plates were incubated at 37° C., 5% CO2, and 95% humidity in an incubator overnight. Anti-FGFR2b antibodies at a concentration of 10 μg/ml were added to the assay plates. Recombinant human FGF7 or FGF10 protein (10 ng/ml) in the presence of heparin (5 μg/ml) was added to the assay plates. The plates were incubated in a 37° C., 5% CO2, 95% humidity incubator for 2 hours. Following 2 hours incubation, cells were collected and washed twice with cold PBS. NP40 lysis buffer containing 1×PMSF and 1× Protease plus phosphatase inhibitors were added to the cell pellets. The mixture was pipetted up and down to suspend the pellet. The mixture was inverted gently and each placed for 10 minutes on ice, for a total of 30 minutes. The mixture was centrifuged at 12000× rpm for 10 minutes to pellet the cell debris. The supernatant was transferred to a new tube to quantify total protein concentration by BCA Kit. The protein samples were then split and stored at −80° C. for further Western blotting to detect the expression of pFGFR and total FGFR2.
Western blotting procedure: The completely thawed protein samples were mixed with 4×SDS loading buffer and were heated for 10 min at 37° C. Then the mixtures were centrifuged at ˜3500×rpm for 5 min. Equal amounts of proteins were loaded into an SDS-PAGE gel, whereafter proteins were transferred to PVDF membranes using iBlot. The membranes were then subjected to Western blotting analysis, focusing on phosphorylated FGFR and total FGFR2.

[3] = system: BaF3_hFGFR2b OE cells; experiment: Ligand-induced proliferation inhibition assay in BaF3_hFGFR2b OE cells; type: cell-based; conditions: antibody 10 μg/ml, heparin 5 μg/ml, 72 hours
Protocol: The inhibition activity of antibody on ligand-induced cell proliferation was evaluated in an FGFR2b engineered BaF3 cell line system (BaF3_hFGFR2b OE). BaF3 cells are dependent on interleukin-3 (IL-3) for growth. The BaF3 system allows for testing of kinases and kinase inhibitors. Some protein kinases can render BaF3 cells to be independent of IL-3, whereas kinase inhibitors antagonize this effect. Cells were seeded in 96-well plates at 30,000 cells/well in RPMI-1640 medium containing 10% fetal bovine serum. Anti-FGFR2b antibodies at a concentration of 10 μg/ml were added to the assay plates. Recombinant human FGF7 or FGF10 protein (40 ng/ml) in the presence of heparin (5 μg/ml) was added to the assay plates. The plates were incubated at 37° C., 5% CO2, 95% humidity in an incubator for 72 hours. Following incubation, 50 μl Cell Titer Glo reagent was added to each well and the plates were mixed for 1 min and then incubated at RT for 10 min. Luminescence signals were detected and recorded.
The Ba/F3 system is used to investigate downstream oncogenic signaling pathways and the susceptibility of driver variants to therapeutics. Driver-addicted Ba/F3 cells die when the driver-engaged signaling pathway is inhibited, and this effect can be rescued by re-introduction of […].
FIGS. 6 and 7 show the results of Ba/F3 proliferation assays. The net growth on Ba/F3 cells overexpressing FGFR2b is reported after treatment with anti-FGFR2b antibodies of the present disclosure. Normal Ba/F3 cells die shortly after withdrawal of exogenous […]. […] Comparator BGA2311 binds at the N-terminus and is not considered to be a ligand blocker. Thus, BGAm1371 may partially block the FGFR2b signaling pathway, such as the signaling pathway mediated by FGF7.

[4] = biological target: T2, human FGFR2b (Homo sapiens, UniProt P21802); experiment: SPR affinity determination, human FGFR2b (Example 9); type: binding; conditions: for Kd: kd/ka
Protocol: (§1) For affinity determination, antibodies were captured by anti-human Fc antibodies, and used in the affinity assay based on surface plasmon resonance (SPR) technology. SPR signals were analyzed to calculate the association rates (ka) and dissociation rates (kd) by using the one-to-one Langmuir binding model (BIA Evaluation Software, GE Life Sciences). The equilibrium dissociation constant (KD) was calculated as the ratio of kd/ka. Rmax represents the maximal feasible SPR signal generated by an interaction between a ligand-analyte pair and is represented in response units (RU). BGAh9239 and BGA9179 show similar binding profiles to human FGFR2b and cyno FGFR2b, and are similar to their parental antibodies BGAm1823 and BGAm1371, respectively.

[5] = biological target: T2, human FGFR2b; experiment: ELISA binding to recombinant human FGFR2b (Example 11)
[6] = biological target: T3, Mouse FGFR2b (Mus musculus, UniProt P21803); experiment: FACS binding on Expi293 cells, mouse FGFR2b (Example 10); conditions: Expi293 cells overexpressing mouse FGFR2b
T3 construct: expressed in transfected cells; host or cells: Expi293
Protocol: (§2) To evaluate the binding activity of anti-FGFR2b antibodies to native FGFR2b on living cells, Expi293 cells were engineered to overexpress human FGFR2b, cyno FGFR2b, mouse FGFR2b, or human FGFR2c. Expi293 cells expressing antigens were seeded in 96-well plates, and were incubated with serially diluted anti-FGFR2b antibodies. Goat anti-human IgG [Alexa Fluor® 647] […] The change of mean fluorescent intensity (MFI) of humanized candidates BGAh9239 and BGAh9179 was measured by flow cytometry. EC50 values for dose-dependent binding to native human FGFR2b, cyno FGFR2b, mouse FGFR2b, and human FGFR2c were determined using sigmoidal dose-response curves of nonlinear fit from GraphPad Prism™.

[7] = biological target: T1, Human FGFR2c; experiment: FACS binding on Expi293 cells, human FGFR2c (Example 10); conditions: for Emax (MFI): Expi293 cells overexpressing human FGFR2c
Protocol: as §2

[8] = system: Cyno FGFR2b; experiment: SPR affinity determination, cyno FGFR2b (Example 9); type: binding
Protocol: as §1

[9] = system: Cyno FGFR2b; experiment: ELISA binding to recombinant cyno FGFR2b (Example 11)
[10] = biological target: T2, human FGFR2b; experiment: FACS binding to native FGFR2b on Expi293 cells, human FGFR2b (Example 10); conditions: Expi293 cells overexpressing human FGFR2b
Protocol: as §2

[11] = biological target: T4, soluble human FGFR2b proteins (Homo sapiens, UniProt P21802); experiment: SPR binding kinetics (Biacore 8K, Example 5); conditions: room temperature
T4 construct: soluble human FGFR2b proteins (his tag, in-house generated); His tag; made in house
Protocol: The binding affinity and kinetics of purified anti-FGFR2b antibodies were determined by surface plasmon resonance (Biacore 8K, GE Life Sciences) at room temperature. Briefly, mouse anti-human IgG Fc antibody was immobilized via amine coupling onto a activated CM5 biosensor chip (Cat. No. BR100530, GE Life Sciences). Purified monoclonal antibody candidates were flowed over the chip surface and captured by anti-human IgG antibody. Then a serial dilution of soluble human FGFR2b proteins (his tag, in-house generated) were injected over the antibodies captured surface and changes in surface plasmon resonance signals were analyzed to calculate the association rates (kon) and dissociation rates (koff) by using the one-to-one Langmuir binding model (BIA Evaluation Software, GE Life Sciences). The equilibrium dissociation constant (KD) was calculated as the ratio koff/kon.

T2 sequence (P21802 22-822 isoform P21802-3 limits assumed): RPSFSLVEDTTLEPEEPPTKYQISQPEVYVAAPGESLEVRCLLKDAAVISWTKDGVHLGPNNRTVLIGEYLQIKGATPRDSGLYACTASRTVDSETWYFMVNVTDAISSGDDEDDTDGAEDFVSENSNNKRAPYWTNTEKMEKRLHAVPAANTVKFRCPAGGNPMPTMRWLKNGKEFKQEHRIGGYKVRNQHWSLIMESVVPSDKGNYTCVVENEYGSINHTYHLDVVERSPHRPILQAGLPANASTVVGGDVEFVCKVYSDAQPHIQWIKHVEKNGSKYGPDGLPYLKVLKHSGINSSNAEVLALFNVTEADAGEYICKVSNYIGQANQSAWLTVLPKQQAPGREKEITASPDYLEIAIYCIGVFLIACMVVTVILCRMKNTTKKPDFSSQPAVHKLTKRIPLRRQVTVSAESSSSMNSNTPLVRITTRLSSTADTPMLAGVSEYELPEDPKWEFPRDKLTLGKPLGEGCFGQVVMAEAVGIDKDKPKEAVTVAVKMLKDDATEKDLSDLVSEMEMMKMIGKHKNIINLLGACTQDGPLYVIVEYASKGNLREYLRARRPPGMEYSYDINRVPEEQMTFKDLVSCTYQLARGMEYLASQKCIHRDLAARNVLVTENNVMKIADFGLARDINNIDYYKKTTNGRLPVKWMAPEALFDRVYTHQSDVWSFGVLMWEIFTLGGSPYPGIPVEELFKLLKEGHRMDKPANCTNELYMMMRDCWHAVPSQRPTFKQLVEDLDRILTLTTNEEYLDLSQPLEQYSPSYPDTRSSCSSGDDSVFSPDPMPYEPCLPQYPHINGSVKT
T1 sequence (P21802 22-821): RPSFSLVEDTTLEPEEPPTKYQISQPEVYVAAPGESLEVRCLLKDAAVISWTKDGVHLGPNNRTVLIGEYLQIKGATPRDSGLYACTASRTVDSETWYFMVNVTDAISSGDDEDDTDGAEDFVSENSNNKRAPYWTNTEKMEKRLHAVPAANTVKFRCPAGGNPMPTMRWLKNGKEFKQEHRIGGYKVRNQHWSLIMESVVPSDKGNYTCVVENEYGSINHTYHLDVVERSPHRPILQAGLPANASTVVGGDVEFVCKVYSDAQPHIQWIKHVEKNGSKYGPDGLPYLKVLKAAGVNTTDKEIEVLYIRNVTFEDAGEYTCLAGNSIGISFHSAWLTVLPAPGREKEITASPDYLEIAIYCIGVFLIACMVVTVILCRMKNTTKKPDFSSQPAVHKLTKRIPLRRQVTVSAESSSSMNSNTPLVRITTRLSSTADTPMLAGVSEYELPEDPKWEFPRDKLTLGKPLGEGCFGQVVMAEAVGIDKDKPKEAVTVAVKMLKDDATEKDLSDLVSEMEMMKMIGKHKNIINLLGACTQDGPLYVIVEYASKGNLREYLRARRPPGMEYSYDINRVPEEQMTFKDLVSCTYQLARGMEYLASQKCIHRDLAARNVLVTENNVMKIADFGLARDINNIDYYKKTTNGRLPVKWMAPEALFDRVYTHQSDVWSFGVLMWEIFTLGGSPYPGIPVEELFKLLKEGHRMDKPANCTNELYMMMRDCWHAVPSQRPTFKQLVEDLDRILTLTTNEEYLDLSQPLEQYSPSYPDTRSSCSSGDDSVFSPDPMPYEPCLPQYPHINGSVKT
T3 sequence (P21803 22-707 isoform P21803-2 limits assumed): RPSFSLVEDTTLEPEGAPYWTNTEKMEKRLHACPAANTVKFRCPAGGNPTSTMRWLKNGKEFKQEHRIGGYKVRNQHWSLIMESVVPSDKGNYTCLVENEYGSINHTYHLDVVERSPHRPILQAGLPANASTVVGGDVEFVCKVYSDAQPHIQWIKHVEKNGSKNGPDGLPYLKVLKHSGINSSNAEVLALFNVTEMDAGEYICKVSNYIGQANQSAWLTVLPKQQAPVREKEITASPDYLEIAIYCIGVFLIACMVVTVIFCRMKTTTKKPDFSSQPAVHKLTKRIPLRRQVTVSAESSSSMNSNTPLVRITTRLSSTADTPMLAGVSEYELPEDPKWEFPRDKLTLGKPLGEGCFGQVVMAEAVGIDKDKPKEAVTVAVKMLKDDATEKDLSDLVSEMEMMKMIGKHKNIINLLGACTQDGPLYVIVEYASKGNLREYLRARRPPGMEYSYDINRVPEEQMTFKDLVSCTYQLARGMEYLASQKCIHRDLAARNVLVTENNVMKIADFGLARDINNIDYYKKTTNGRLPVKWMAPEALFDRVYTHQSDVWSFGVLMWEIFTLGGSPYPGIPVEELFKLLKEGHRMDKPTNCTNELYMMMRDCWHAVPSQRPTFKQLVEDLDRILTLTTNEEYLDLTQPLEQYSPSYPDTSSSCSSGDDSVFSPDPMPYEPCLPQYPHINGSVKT
T4 sequence (P21802 22-378 isoform P21802-3 limits assumed): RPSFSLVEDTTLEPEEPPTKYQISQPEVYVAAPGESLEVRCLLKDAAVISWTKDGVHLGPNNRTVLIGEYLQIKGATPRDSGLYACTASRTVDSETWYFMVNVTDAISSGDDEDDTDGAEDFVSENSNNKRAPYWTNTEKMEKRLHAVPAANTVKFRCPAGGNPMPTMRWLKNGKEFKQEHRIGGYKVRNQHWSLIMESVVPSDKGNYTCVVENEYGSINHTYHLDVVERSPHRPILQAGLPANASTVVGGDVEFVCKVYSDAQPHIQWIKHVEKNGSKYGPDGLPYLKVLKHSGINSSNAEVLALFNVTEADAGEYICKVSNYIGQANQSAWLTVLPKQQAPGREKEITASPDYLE

| Molecule | Emax (A450) [1] | binding to human FGFR2c [1] | FGF10-induced FGFR phosphorylation [2] | Rmax [4] | ka [4] | kd [4] | Kd [4] | EC50 [5] | Emax (A450) [5] | EC50 [6] | Emax (MFI) [6] | Emax (MFI) [7] | ka [8] | kd [8] | Emax (A450) [9] | EC50 [10] | Emax (MFI) [10] | also measured |
| --- | --- | --- | --- | --- | --- | --- | --- | --- | --- | --- | --- | --- | --- | --- | --- | --- | --- | --- |
| B1 | 0.116 A450 | no detectable binding | down-regulation of phosphorylated FGFR | 85.7 RU | 7.63E+04 M^−1S^−1 | 1.85E−03 S^−1 | 24.2 nM | 0.0442 nM | 2.952 A450 | 3.37 nM | 5194795 MFI | 22634 MFI | 7.35E+04 M^−1S^−1 | 1.80E−03 S^−1 | 2.996 A450 | 2.12 nM | 3092441 MFI | FGF7-induced FGFR phosphorylation ([2]; FGF7 10 ng/ml): down-regulation of phosphorylated FGFR; inhibition of FGF7-induced BaF3_hFGFR2b cell proliferation ([3]; FGF7 40 ng/ml): potently inhibit; inhibition of FGF10-induced BaF3_hFGFR2b cell proliferation ([3]; FGF10 40 ng/ml): potently inhibit |
| B2 | 0.086 A450 | no detectable binding | little or no down-regulation | 38.3 RU | 8.16E+04 M^−1S^−1 | 1.78E−03 S^−1 | 21.8 nM | 0.0518 nM | 2.993 A450 | 4.25 nM | 5145011 MFI | 21749 MFI | 8.37E+04 M^−1S^−1 | 1.72E−03 S^−1 | 2.953 A450 | 3.29 nM | 2977577 MFI | binding to native human FGFR2c ([7]; living Expi293 cells, in words): no detectable binding; ka ([11]; antibody captured): 80600 M⁻¹ s⁻¹; kd ([11]; antibody captured): 0.00112 s⁻¹; Kd ([11]; koff/kon): 13.9 nM |
